Measured values from the supplement of paper PMC10126150.
± gives the standard deviation of the averaged measurements.

system: ATP; test: switch fluorescence ratio, 500 uM ATP over buffer (Cy3 cluster intensity, sum of 5 cycles each) (fold (ratio)); higher = stronger signal-on switching upon ATP binding; sequences stand for … in TCGTCGGCAGCGTCAGATGTGTATAAGAGACAGTTTTTTTTTTTTTTTTTTTTTTTTT…TC; conditions: aptamer strand: ATP DNA aptamer (quencher-CACCTGGGGGAGTATTGCGGAGGAAGG + anchor), 100 nM annealed; ATP concentration: 500 uM
In short: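 Values give the fluorescence ratio for each switch-domain sequence, averaged from per-cluster ratios of summed target-cycle to summed buffer-cycle Cy3 intensity. The Cy3-labelled switching-strand clusters sat on a modified Illumina MiSeq flow-cell, were annealed to 100 nM quencher-labelled ATP aptamer, and were imaged in selection buffer, then after 15 min with 500 uM ATP at 22 °C. Five cycles ran with NaOH stripping and re-annealing between them, and clusters outside 100-1000 RFU were excluded.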
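Further: ATP exposure 15 min at 22 °C before imaging.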

Sequence | switch fluorescence ratio
AGGATTTTAG | 1.002 ± 0.0049
TGGGAGGCAA | 1.16 ± 0.021
TTTGGATATT | 1.03 ± 0.095
GACGGGGGGC | 1.02 ± 0.018
GGGAGTTAGA | 0.9885 ± 0.0063
TGGGGAGCCT | 1.03 ± 0.041
TGGGAAATCT | 1.17 ± 0.25
CAGATGGGGT | 0.9839 ± 0.001
TAACTGGCGT | 0.991 ± 0.04
GAAAGAAATG | 0.9994 ± 0.003
CGGACGGGGG | 0.999 ± 0.036
AGGGGCGGTC | 1.03 ± 0.014
TTTGGGTTAA | 1.13 ± 0.29
TGGTCGCAGG | 0.9899 ± 0.005
TTGCTTGGAA | 0.992 ± 0.026
AAGTTGAGTA | 0.986 ± 0.025
GGGGAATGTA | 0.971 ± 0.022
TTGTTGCAAG | 1.013 ± 0.0079
GCGGTAACCA | 0.992 ± 0.033
GAATGAGATC | 1.01 ± 0.11
AGAGAGGAGG | 0.997 ± 0.066
GAGTTTATTA | 0.994 ± 0.021
TGATGGCAGT | 1.02 ± 0.031
TCGTTTTGAG | 0.971 ± 0.039
GTTTCTTTAC | 0.988 ± 0.058

Sequence | switch fluorescence ratio
AGGATGGTTG | 1 ± 0.021
ACTGTTTTCC | 1.066 ± 0.0042
CGGCTATCTC | 1.381 ± 0.011
GGGAGTGTCA | 0.981 ± 0.0045
TTGGGGCACT | 0.985 ± 0.016
AATGGGGGAA | 0.9881 ± 0.0087
TACGGAAGGA | 1.1 ± 0.021
TGGTGTCAAT | 1 ± 0.017
AGAGTAGAGG | 1.01 ± 0.028
CATTTCAGAG | 1.003 ± 0.0062
TGGTGGAGAT | 1.01 ± 0.028
AGAATTCAAC | 1.003 ± 0.004
GATTTGTGTC | 0.955 ± 0.081
TAGATGTCAG | 0.986 ± 0.016
AGCGTTTCCG | 0.99 ± 0.028
ATCGTTTTTA | 1.001 ± 0.004
AAATGCAGCT | 0.977 ± 0.016
CGGTAGTTTT | 0.99 ± 0.014
GGGTTGGCGT | 0.956 ± 0.012
TAGAGGGGTT | 0.985 ± 0.02
TGAGAAAGAG | 2.15 ± 2
TGGGTCAAAT | 1.02 ± 0.027
CCGTCAGGTT | 1.012 ± 0.005
CAAGTTGTTA | 0.964 ± 0.029
TCGACGATTT | 1.23 ± 0.26

Sequence | switch fluorescence ratio
ACTGGTCTCA | 1.002 ± 0.0098
ACTGGGTCCG | 1 ± 0.057
ATAACAGGAT | 0.986 ± 0.033
CGTTGCAGGG | 0.984 ± 0.024
TTTTAAGAT | 1.02 ± 0.029
GGAACCTCTG | 1.012 ± 0.0037
GATTGGGCTG | 0.984 ± 0.056
AGGTCGGCA | 0.9919 ± 0.0092
GAGGATTAGA | 0.988 ± 0.015
GAGGGGGGTA | 0.989 ± 0.02
TCTTTTTCTT | 1.01 ± 0.033
AAAAGGGGAA | 1.02 ± 0.025
CTCGGTGAGG | 0.991 ± 0.029
CATTTATATG | 1.02 ± 0.026
TTTACTTTGC | 1.48 ± 0.69
GTGGTTAGCA | 0.9712 ± 0.0065
CTAGGTCGGC | 0.994 ± 0.042
ATGAGTCATG | 1.01 ± 0.028
CCATGGGGGT | 1.16 ± 0.14
TAGCTGAGGT | 1.03 ± 0.017
TTCTGTCCAC | 1.03 ± 0.013
TAGAGGCTGC | 0.958 ± 0.042
TTTATAGGTC | 0.994 ± 0.038
ATGACGAAAA | 1.04 ± 0.058
TAGTTTAATT | 0.998 ± 0.015

Sequence | switch fluorescence ratio
GGAACCATAT | 0.997 ± 0.013
TACACTGATA | 1.08 ± 0.043
ATATGGGCTG | 1.05 ± 0.1
GAGAATGGGT | 0.981 ± 0.022
TAAGGGGACG | 1.02 ± 0.023
TTTAGGGGAC | 1 ± 0.012
ATATGTTTTT | 0.996 ± 0.018
ACCAAGGGCT | 0.996 ± 0.034
TGGGGCGC | 1.01 ± 0.097
TCGGTCAGTT | 0.971 ± 0.012
TTCAGGCACG | 0.986 ± 0.049
AAAGAATGGG | 0.978 ± 0.017
GAGTCACAGT | 1 ± 0.057
CTATTCCACC | 1.02 ± 0.023
AAAAATTTCG | 1.05 ± 0.063
AAGTTGGGAA | 1.02 ± 0.042
CAAATTGGGT | 0.996 ± 0.04
GATGGGGGTC | 1.21 ± 0.34
TACGTGGGGT | 1.01 ± 0.018
GCGGGGACAA | 1.069 ± 0.0083
GAGGCATCTC | 1.02 ± 0.025
CTCGAGGGTA | 1 ± 0.022
TAAGAAGGCG | 0.9734 ± 0.0047
GTTCAAATGA | 0.987 ± 0.017
GTCTTTAACT | 0.982 ± 0.059

Sequence | switch fluorescence ratio
GGTTCGTCTG | 0.981 ± 0.021
GATGAGAGGG | 1.002 ± 0.0059
TAGGTTGAAT | 0.984 ± 0.019
GCTGTAGAAG | 0.9951 ± 0.0056
GCGTTCGTGG | 1.02 ± 0.027
TTGTAAATGC | 1.26 ± 0.29
ATGCGCTGGG | 1.01 ± 0.021
CTTAGGAGGG | 0.997 ± 0.013
AAAGAGTAGT | 0.962 ± 0.014
TGCGAAAGGA | 1.01 ± 0.016
ATTAGAGGGG | 0.9862 ± 0.0067
AGATTAGTAT | 1.02 ± 0.056
GAGTAACCTG | 1.01 ± 0.071
TCGAAGTCAG | 1.06 ± 0.044
AGAGAAGGGT | 0.996 ± 0.017
GCTTACAGGC | 1.04 ± 0.048
AGGGTATATC | 1.05 ± 0.03
TCATGGTTTT | 0.977 ± 0.016
ACAGAAGTCT | 1.03 ± 0.096
GAGGTTTCAC | 0.965 ± 0.023
TAGATTTTGC | 1.03 ± 0.027
ATGACGCGGG | 0.959 ± 0.023
GGGGCGGGTT | 1.02 ± 0.04
GGTGGAGGTT | 1.02 ± 0.051
AGGTCGGGGG | 0.988 ± 0.029

Sequence | switch fluorescence ratio
GTTTAATTTG | 1 ± 0.025
TGTGGGGGAT | 1.01 ± 0.06
TAGGAAGATG | 1.02 ± 0.1
AGGCGGGGTA | 0.9847 ± 0.0089
GGGGTTCATC | 0.995 ± 0.022
ATTAGTGGGG | 0.978 ± 0.013
CGGGTGGTCG | 0.8742 ± 0.0063
GGTTATTGGT | 1.02 ± 0.021
GAAGGTCAGT | 0.971 ± 0.051
TGGGGCCGGG | 1.01 ± 0.016
ATTGTGGGCC | 0.975 ± 0.023
TATTAATTCG | 1.01 ± 0.032
GGGTTGGACT | 0.999 ± 0.012
GCATGTCTGC | 0.9862 ± 0.0093
GGGATTGATC | 1.02 ± 0.021
ATGAAGTGAG | 1.01 ± 0.027
AAGTTTATTC | 0.967 ± 0.017
ATTGCCCACC | 1.026 ± 0.0086
TGGGATTGTT | 1 ± 0.035
ATCAGGATGC | 1.04 ± 0.063
GAATATAGTG | 1.02 ± 0.011
AGAGATTTAT | 0.988 ± 0.019
ATAGTAGCTA | 0.9764 ± 0.0016
GGAAGGGTAT | 1 ± 0.03
TGTTATAAAT | 0.999 ± 0.032

Sequence | switch fluorescence ratio
TGGCTCATAC | 1.45 ± 0.041
CCTAACACGA | 1.11 ± 0.027
ATCTATGTGG | 0.982 ± 0.035
CAACGGGGGT | 1.03 ± 0.018
CTGGTGGGTC | 1.01 ± 0.018
AGCCAGAGAC | 1.07 ± 0.036
CGACCGAACA | 1.09 ± 0.014
GAGGGCAGGG | 0.978 ± 0.034
GGCCGTGAGT | 0.996 ± 0.018
TTAATTTTTT | 0.995 ± 0.037
TTAAGGGGAA | 1.06 ± 0.063
CAAGCGTGCG | 0.98 ± 0.012
CGGAGTGAGG | 1.02 ± 0.014
GGTAGTTAAA | 0.999 ± 0.024
ACGCCATAGT | 1.25 ± 0.059
GATCGGCGTG | 1 ± 0.015
AATCTACGCA | 1.44 ± 0.32
CATGGGGGAG | 0.978 ± 0.035
AGATGGGTTT | 1.01 ± 0.044
GAGTGGTCAG | 0.9638 ± 0.0077
GGGAGTTTAG | 0.994 ± 0.016
TCGCAGTTTC | 1.7002 ± 0.00038
GCCAGGCATT | 0.989 ± 0.05
GAATGGGAGT | 0.9969 ± 0.0051
CGTCCATATG | 1.016 ± 0.0089

Sequence | switch fluorescence ratio
TCGAAATAGG | 1.005 ± 0.0023
GTTCCGGGGA | 1.02 ± 0.016
TCGAGGGTCT | 1.023 ± 0.0083
AACGGCCATG | 1.02 ± 0.037
AGGGGACGGC | 1.04 ± 0.0085
TCTCGTGGGA | 1.01 ± 0.03
GCGCGTATAT | 1.07 ± 0.044
TTTAATATTA | 0.986 ± 0.015
CGTAGGGCAG | 0.991 ± 0.049
GCGGCTTCGT | 1.02 ± 0.07
GAAGTGAGCA | 1.01 ± 0.044
TCGGCAGGGA | 1.01 ± 0.051
TTTATGGGAA | 1.01 ± 0.026
GGAGAAGCGT | 1.04 ± 0.031
CAGGGGGCAC | 1.05 ± 0.042
ACACGGTGGG | 0.975 ± 0.054
GTGGGGATTG | 0.9379 ± 0.0016
ACACAATCAT | 1.02 ± 0.011
TTGAGTACGT | 0.992 ± 0.045
TGGGTTTAAC | 1.08 ± 0.18
TAGATCGGGG | 1.008 ± 0.01
TGCCCGAGCT | 1.03 ± 0.1
GGTAACGACA | 1.02 ± 0.019
AAAGGAAGAT | 0.993 ± 0.055
TTCGGGACGC | 1.03 ± 0.053
